US20120064078A1

Biological target: intracellular Hsp90α (human) (human) (UniProt P07900)
Experiment: cell-based or functional assay

Thr90 phosphorylated Hsp90α (pT90-Hsp90α) level in MCF-7 cells on overexpression of human PP5 (fold of control): 0.55 | Thr90 phosphorylated Hsp90α (pT90-Hsp90α) level in MCF-7 cells on siRNA knock-down of human PP5 (fold of control): 1.58
Substance: human PP5 in MCF-7 cells (overexpressed from pcDNA3.1/Myc-His(-) or endogenous, knocked down by siRNA) (from UniProt P53041 2-499)
